In paper PMC6139572 one finds isometric force of demembranated rat ventricular trabeculae in relaxing solution (pCa 9) with 40 μmol/liter C1mC2, as percent of that during full Ca2+ activation, Kd and Kd of the additional low-affinity binding interaction data, which are given here for two substances.

Usually Kd stands for the constant that tells how readily two partners part at equilibrium.

In test [1] the target is isolated native thin filaments (UniProt P68032).
The target in test [2] is myosin S2Δ, the first 126 amino acids of myosin sub-fragment 2 (rat heart) (rat). The test is described as follows: MST; as a2 but 180 mmol/liter KCl; pH 7; 30 °C.
For test [3] the target is unchanged. The experiment in a line: MST; Monolith NT.115; 100 nmol/liter Alexa 647–myosin S2Δ fixed, cMyBP-C construct titrated; 20 mmol/liter MOPS pH 7, 1 mmol/liter EDTA, 50 mmol/liter KCl, 1 mmol/liter DTT, 0.05% Tween 20; 21 °C.
The target is the same in test [4]. The test is described as follows: MST; as a2 (pH 7, 50 mmol/liter KCl); biphasic binding curve of Fig. S3, the temperature of the curve is not given.
Test [5] concerns the target isolated native thin filaments (UniProt P68032). The experiment in a line: co-sedimentation; high-velocity co-sedimentation of C1mC2 constructs with isolated native thin filaments; performed as described in ref. 15.
Test [6] has as its target myosin S2Δ, the first 126 amino acids of myosin sub-fragment 2 (rat heart) (rat). The experiment in a line: MST; as a2 (pH 7, 50 mmol/liter KCl); 30 °C.
For test [7] the target is unchanged. The test is described as follows: MST; as a2 (pH 7, 50 mmol/liter KCl); 25 °C.

In test [1], “C1mC2, unphosphorylated N-terminal fragment of rat cardiac myosin-binding protein-C containing the Ig-domains C1 and C2 and the intervening m-domain (domain or fragment)” came in with an isometric force of demembranated rat ventricular trabeculae in relaxing solution (pCa 9) with 40 μmol/liter C1mC2, as percent of that during full Ca2+ activation of 57%. Moreover, the equilibrium dissociation constant (Kd) in test [2] was determined as 364 µM; in test [3] it was 106 µM; in test [5], 23 µM; in test [6], 21.3 µM; in test [7], 58.5 µM. Moreover, the Kd of the additional low-affinity binding interaction in test [4] was 400 µM.

Consider “PKA tris-phosphorylated C1mC2 of rat cardiac myosin-binding protein-C (domain or fragment)”, for which the dissociation constant (Kd) in test [5] came out at 57 µM.
